Results from US20160130327A1.

Legend:
[1] = target: revertant virus (AD169 CMV with the pentameric gH complex restored); test: cell-based or functional assay
[2] = target: revertant virus (AD169 CMV with the pentameric gH complex restored); test: antibody-titration EIA, coated revertant virions

Work on “human polyclonal CMV hyperimmune IgG (HIG, CytoGam) (antibody)” yielded an EC50 neutralizing (ARPE-19 cells) [1] of 1 µg/mL and an EC50 [2] of 2 µg/mL.
